Assay results: publication PMC5762833, “Direct Molecular Fishing of New Protein Partners for Human Thromboxane Synthase” (Acta Naturae, 2017)

T1: Human thromboxane synthase (TBXAS1) (human, UniProt P24557 1-533)
T1 construct: thromboxane synthase (TBXAS1, CYP5A1), human, recombinant; Covalently immobilised on CNBr-Sepharose 4B (fishing) or on a CM5 chip (SPR); also used as analyte; also called CYP5A1
T1 sequence (looked up): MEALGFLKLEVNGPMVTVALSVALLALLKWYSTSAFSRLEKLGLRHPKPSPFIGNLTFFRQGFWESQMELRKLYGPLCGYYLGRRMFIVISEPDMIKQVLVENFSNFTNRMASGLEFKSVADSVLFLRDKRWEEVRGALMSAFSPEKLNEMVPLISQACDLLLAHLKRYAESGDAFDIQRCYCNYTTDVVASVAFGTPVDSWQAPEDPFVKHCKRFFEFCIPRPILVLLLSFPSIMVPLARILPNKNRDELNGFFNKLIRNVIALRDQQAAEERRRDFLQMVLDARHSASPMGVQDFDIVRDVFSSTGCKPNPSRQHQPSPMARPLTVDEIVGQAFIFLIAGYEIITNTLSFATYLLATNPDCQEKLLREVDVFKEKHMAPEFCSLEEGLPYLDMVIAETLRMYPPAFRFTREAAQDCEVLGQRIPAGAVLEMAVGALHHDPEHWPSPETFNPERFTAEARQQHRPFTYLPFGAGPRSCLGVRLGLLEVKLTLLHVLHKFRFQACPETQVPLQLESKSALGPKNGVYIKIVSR

B1: 4-nitrophenol-2-hydroxylase (CYP2E1), recombinant (enzyme, UniProt P05181 1-493, looked up)
chain: MSALGVTVALLVWAAFLLLVSMWRQVHSSWNLPPGPFPLPIIGNLFQLELKNIPKSFTRLAQRFGPVFTLYVGSQRMVVMHGYKAVKEALLDYKDEFSGRGDLPAFHAHRDRGIIFNNGPTWKDIRRFSLTTLRNYGMGKQGNESRIQREAHFLLEALRKTQGQPFDPTFLIGCAPCNVIADILFRKHFDYNDEKFLRLMYLFNENFHLLSTPWLQLYNNFPSFLHYLPGSHRKVIKNVAEVKEYVSERVKEHHQSLDPNCPRDLTDCLLVEMEKEKHSAERLYTMDGITVTVADLFFAGTETTSTTLRYGLLILMKYPEIEEKLHEEIDRVIGPSRIPAIKDRQEMPYMDAVVHEIQRFITLVPSNLPHEATRDTIFRGYLIPKGTVVVPTLDSVLYDNQEFPDPEKFKPEHFLNENGKFKYSDYFKPFSTGKRVCAGEGLARMELFLLLCAILQHFNLKPLVDPKDIDLSPIHIGFGCIPPRYKLCVIPRS
notes: cytochrome P450 2E1, recombinant; also called cytochrome P450 2E1
B2: aldosterone synthase (CYP11B2) (enzyme, UniProt P19099 25-503, looked up)
chain: GTRAARAPRTVLPFEAMPQHPGNRWLRLLQIWREQGYEHLHLEMHQTFQELGPIFRYNLGGPRMVCVMLPEDVEKLQQVDSLHPCRMILEPWVAYRQHRGHKCGVFLLNGPEWRFNRLRLNPDVLSPKAVQRFLPMVDAVARDFSQALKKKVLQNARGSLTLDVQPSIFHYTIEASNLALFGERLGLVGHSPSSASLNFLHALEVMFKSTVQLMFMPRSLSRWISPKVWKEHFEAWDCIFQYGDNCIQKIYQELAFNRPQHYTGIVAELLLKAELSLEAIKANSMELTAGSVDTTAFPLLMTLFELARNPDVQQILRQESLAAAASISEHPQKATTELPLLRAALKETLRLYPVGLFLERVVSSDLVLQNYHIPAGTLVQVFLYSLGRNAALFPRPERYNPQRWLDIRGSGRNFHHVPFGFGMRQCLGRRLAEAEMLLLLHHVLKHFLVETLTQEDIKMVYSFILRPGTSPLLTFRAIN
notes: aldosterone synthase (CYP11B2), mitochondrial cytochrome P450, recombinant

Legend:
[1] = target: T1, Human thromboxane synthase (TBXAS1); test: SPR; Biacore 3000; TBXAS1 amine-coupled to a CM5 chip (about 7,500 RU); analytes 50 nM to 5 μM injected for 10 min at 5 μL/min; control channel without protein; conditions: both partners purified
[2] = target: T1, Human thromboxane synthase (TBXAS1); test: SPR; as a2, with isatin added to the analyte samples at a final concentration of 100 μM and incubated for 15 min; conditions: both partners purified

Binder	Kd [1] [nM]	fold difference of koff against TBXAS1•CYP11B2 (CYP2E1 the slower) [1] [fold]	fold difference of kon against TBXAS1•CYP11B2 (CYP2E1 the slower) [1] [fold]	fold decrease in koff with 100 μM isatin against no isatin [2] [fold]	fold increase in affinity with 100 μM isatin against no isatin [2] [fold]	fold increase in kon with 100 μM isatin against no isatin [2] [fold]
B1	430	15	10	2.5	5	2
B2	690	–	–	–	–	–
